# PMC3597659
# Where two headings read alike, the source gives them in different places.
# T1: RAG1c (core RAG1) (Mus musculus, UniProt P15919 384-1008)
# T1 sequence: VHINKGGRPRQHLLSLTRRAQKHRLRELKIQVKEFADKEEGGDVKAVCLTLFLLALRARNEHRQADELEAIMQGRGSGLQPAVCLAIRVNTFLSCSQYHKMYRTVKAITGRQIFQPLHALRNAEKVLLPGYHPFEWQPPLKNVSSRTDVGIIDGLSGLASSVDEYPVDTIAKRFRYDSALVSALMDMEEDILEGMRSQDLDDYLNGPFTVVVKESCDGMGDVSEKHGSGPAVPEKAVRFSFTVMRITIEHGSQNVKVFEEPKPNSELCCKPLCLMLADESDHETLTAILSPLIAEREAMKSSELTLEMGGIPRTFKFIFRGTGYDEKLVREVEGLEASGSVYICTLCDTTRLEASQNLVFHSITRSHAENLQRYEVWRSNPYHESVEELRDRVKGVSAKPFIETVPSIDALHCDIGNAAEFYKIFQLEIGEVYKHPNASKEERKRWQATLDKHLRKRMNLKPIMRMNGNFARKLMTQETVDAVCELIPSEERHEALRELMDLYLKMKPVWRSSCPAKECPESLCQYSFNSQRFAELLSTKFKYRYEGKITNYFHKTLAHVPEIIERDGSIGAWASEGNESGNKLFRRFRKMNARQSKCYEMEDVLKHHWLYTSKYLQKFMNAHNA
# Experiments:
# [1] = target: T2, HMGB1-WT (Homo sapiens, UniProt P09429 2-215); experiment: pull-down
# T2 sequence (P09429 2-215): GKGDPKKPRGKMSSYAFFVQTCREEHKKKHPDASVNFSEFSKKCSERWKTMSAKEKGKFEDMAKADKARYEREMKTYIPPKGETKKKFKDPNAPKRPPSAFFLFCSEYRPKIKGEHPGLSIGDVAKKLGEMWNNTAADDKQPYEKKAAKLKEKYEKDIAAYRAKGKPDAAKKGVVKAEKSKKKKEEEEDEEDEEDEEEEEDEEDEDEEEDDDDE
# [2] = target: T3, HMGB1-WT;RAG1c (core RAG1) (Homo sapiens;Mus musculus, UniProt P09429;P15919 2-215;384-1008, |); experiment: pull-down
# T3 sequence (P09429 2-215, one chain of several): as the sequence (P09429 2-215) above
# [3] = target: HMGB1-A488;RAG1c (core RAG1) (Homo sapiens;Mus musculus, UniProt P09429;P15919 2-215;384-1008, C23A;A34C;C45A;C106A|); experiment: fluorescence anisotropy
# HMGB1-A488;RAG1c (core RAG1), sequence (P09429 2-215 C23A/A34C/C45A/C106A, one chain of several): as the sequence (P09429 2-215) above, with C22A, A33C, C44A, C105A counted along it
# [4] = target: HMGB1-A488 (Homo sapiens, UniProt P09429 2-215, C23A;A34C;C45A;C106A); experiment: EMSA
# HMGB1-A488, sequence (P09429 2-215 C23A/A34C/C45A/C106A): as the sequence (P09429 2-215) above, with C22A, A33C, C44A, C105A counted along it
# [5] = target: T1, RAG1c (core RAG1); experiment: fluorescence anisotropy
# [6] = target: T2, HMGB1-WT; experiment: fluorescence anisotropy
# [7] = target: T2, HMGB1-WT; experiment: fluorescence anisotropy; remark: listed apart in the source
# [8] = target: T1, RAG1c (core RAG1); experiment: fluorescence anisotropy; remark: listed apart in the source
# [9] = target: HMGB1-WT;RAG1c (core RAG1);GST-RAG2c (core RAG2) (Homo sapiens;Mus musculus;Mus musculus, UniProt P09429;P15919;P21784 2-215;384-1008;1-387, ||); experiment: EMSA
# HMGB1-WT;RAG1c (core RAG1);GST-RAG2c (core RAG2), sequence (P09429 2-215, chain 1 of 2): as the sequence (P09429 2-215) above
# HMGB1-WT;RAG1c (core RAG1);GST-RAG2c (core RAG2), sequence (P21784 1-387, chain 3 of 2): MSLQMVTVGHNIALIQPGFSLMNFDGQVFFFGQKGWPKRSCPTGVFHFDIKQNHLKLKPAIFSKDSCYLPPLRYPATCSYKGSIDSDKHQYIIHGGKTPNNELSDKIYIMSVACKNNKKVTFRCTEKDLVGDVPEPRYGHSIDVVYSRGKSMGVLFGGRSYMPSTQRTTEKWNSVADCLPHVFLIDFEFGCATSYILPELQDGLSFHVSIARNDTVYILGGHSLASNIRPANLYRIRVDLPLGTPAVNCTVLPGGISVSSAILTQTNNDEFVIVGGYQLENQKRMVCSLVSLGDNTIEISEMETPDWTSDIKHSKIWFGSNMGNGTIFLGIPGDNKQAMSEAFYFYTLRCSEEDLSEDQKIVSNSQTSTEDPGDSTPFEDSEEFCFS
# [10] = target: T3, HMGB1-WT;RAG1c (core RAG1); experiment: pull-down; remark: listed apart in the source
binder,measurement,setting,value
23SCR-biotin (dsDNA) DNA 1: GCTGCGTCTCAAGTTACGCTGCGAGGAATCCTGGTAAGATCTGCGTTAAGTCGGATTCATCTACG DNA 2: CGTAGATGAATCCGACTTAACGCAGATCTTACCAGGATTCCTCGCAGCGTAACTTGAGACGCAGC,binding result,[1],binds
same,binding result,[2],binds
23SCR (dsDNA) DNA 1: GCTGCGTCTCAAGTTACGCTGCGAGGAATCCTGGTAAGATCTGCGTTAAGTCGGATTCATCTACG DNA 2: CGTAGATGAATCCGACTTAACGCAGATCTTACCAGGATTCCTCGCAGCGTAACTTGAGACGCAGC,binding result,[3],binds
four-way junction (4WJ) (structured_DNA) DNA 1: CCTCCGTCCTAGCAAGGGGCTGCTACCGGAAGGG DNA 2: CCCTTCCGGTAGCAGCCTGAGCGGTGGTTGAAGG DNA 3: CCTTCAACCACCGCTCAACTCAACTGCAGTCTGG DNA 4: CCAGACTGCAGTTGAGTCCTTGCTAGGACGGAGG,binding result,[4],binds
23MUT-A488 (dsDNA) DNA 1: GATCTGGCCTGTCTTAACGCAGTATGGAAGCTCAATCTGAACTCTGTGTCTCTGATCGAGCGGAG DNA 2: CTCCGCTCGATCAGAGACACAGAGTTCAGATTGAGCTTCCATACTGCGTTAAGACAGGCCAGATC,Kd,[5],104 nM
same,Kd,[6],66 nM
23MUT (dsDNA) DNA 1: GATCTGGCCTGTCTTAACGCAGTATGGAAGCTCAATCTGAACTCTGTGTCTCTGATCGAGCGGAG DNA 2: CTCCGCTCGATCAGAGACACAGAGTTCAGATTGAGCTTCCATACTGCGTTAAGACAGGCCAGATC,binding result,[3],binds
23RSS-A488 (dsDNA) DNA 1: GATCTGGCCTGTCTTACACAGTGATGGAAGCTCAATCTGAACTCTGACAAAAACCTCGAGCGGAG DNA 2: CTCCGCTCGAGGTTTTTGTCAGAGTTCAGATTGAGCTTCCATCACTGTGTAAGACAGGCCAGATC,Kd,[7],57 nM
same,Kd,[8],78 nM
23RSS (dsDNA) DNA 1: GATCTGGCCTGTCTTACACAGTGATGGAAGCTCAATCTGAACTCTGACAAAAACCTCGAGCGGAG DNA 2: CTCCGCTCGAGGTTTTTGTCAGAGTTCAGATTGAGCTTCCATCACTGTGTAAGACAGGCCAGATC,binding result,[3],binds
32P-23RSS (dsDNA) DNA 1: GATCTGGCCTGTCTTACACAGTGATGGAAGCTCAATCTGAACTCTGACAAAAACCTCGAGCGGAG DNA 2: CTCCGCTCGAGGTTTTTGTCAGAGTTCAGATTGAGCTTCCATCACTGTGTAAGACAGGCCAGATC,binding result,[9],binds
23RSS-biotin (dsDNA) DNA 1: GATCTGGCCTGTCTTACACAGTGATGGAAGCTCAATCTGAACTCTGACAAAAACCTCGAGCGGAG DNA 2: CTCCGCTCGAGGTTTTTGTCAGAGTTCAGATTGAGCTTCCATCACTGTGTAAGACAGGCCAGATC,binding result,[10],binds
